Consider 14 molecules from patent US20120316071A1 (published 2012).

Residue numbers refer to the chain shown, from its start. In names and notes the source's numbering stands.

For experiment [1], the target named is T1, Recombinant Human DLL4 (R&D Systems Cat#1506-D4/CF) (human, UniProt Q9NR61 27-524).
T1 construct: also called rHuman DLL4; delta-like protein 4
Description: ECL (MSD) multispot binding assay, Fab on immobilized recombinant human DLL4.

For experiment [2], the target named is T2, rHuman CD44/Fc Chimera, CF (R&D Systems Cat#3660-CD) (human, UniProt P16070 21-220).
T2 construct: Bought from R&D Systems; Fc part of the bought chimera not given
The experiment in a line: ECL multispot (MSD) binding assay; antigen spotted on plate, Fab in solution, Ru-labelled anti-kappa detection.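 Note: purified Fab in 1% BSA TBST incubated 1 h at 20 °C with shaking, signal compared with each well's blank, signal/blank ratio of 4 or above counted as binder.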

The target of experiment [3] is T3, rHuman ErbB2/Fc Chimera, CF (R&D Systems Cat#1129-ER) (human, UniProt P04626 23-652).
T3 construct: Bought from R&D Systems; also called human epidermal growth factor 2 receptor; Fc part of the bought chimera not given
The experiment is described as above.

The target in experiment [4] is T4, rHuman EGF R/Fc Chimera, CF (R&D Systems Cat#344-ER) (human, UniProt P00533 25-645).
T4 construct: Bought from R&D Systems; also called epidermal growth factor receptor; Fc part of the bought chimera not given
The experiment is described as above.

For experiment [5], the target named is T5, Recombinant Human DLL4 (R&D Systems Cat#1506-D4/CF) (human, UniProt Q9NR61 27-524).
T5 construct: Bought from R&D Systems; also called delta-like protein 4; rHuman DLL4
Described as above.

Experiment [6] deals with T6, rHuman Erythropoietin R/Fc Chimera, CF (R&D Systems Cat#963-ER) (human, UniProt P19235 25-250).
T6 construct: Bought from R&D Systems; also called EPO R; EPO R/Fc; Fc part of the bought chimera not given
T6 sequence (looked up): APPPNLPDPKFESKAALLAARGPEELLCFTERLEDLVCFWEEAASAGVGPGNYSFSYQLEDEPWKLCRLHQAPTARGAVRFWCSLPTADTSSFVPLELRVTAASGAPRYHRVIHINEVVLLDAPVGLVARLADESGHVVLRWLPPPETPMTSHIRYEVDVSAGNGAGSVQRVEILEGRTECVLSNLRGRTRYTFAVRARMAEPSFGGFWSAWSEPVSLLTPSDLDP
Described as above.

Experiment [7] concerns the target T7, rHuman Notch-1/Fc Chimera, CF (R&D Systems Cat#3647-TK) (human, UniProt P46531 19-526).
T7 construct: Bought from R&D Systems; Fc part of the bought chimera not given
The experiment is described as above.

Experiment [8] deals with T8, rHuman HGF R/c-MET/Fc Chimera, CF (R&D Systems Cat#358-MT/CF) (human, UniProt P08581 25-932).
T8 construct: Bought from R&D Systems; also called HGF R/Fc; hepatocyte growth factor receptor; Fc part of the bought chimera not given
The description is as above.

The target in experiment [9] is T9, rHuman IGF-1 sR, CF (R&D Systems Cat#391-GR) (human, UniProt P08069 31-932).
T9 construct: Bought from R&D Systems as a soluble receptor; also called insulin-like growth factor-1 soluble receptor
Described as above.

The target of experiment [10] is T10, rHuman P-Cadherin/Fc Chimera, CF (R&D Systems Cat#861-PC) (human, UniProt P22223 108-654).
T10 construct: Bought from R&D Systems; Fc part of the bought chimera not given
Described as above.

The target in experiment [11] is T11, Recombinant Human DLL4 (delta-like protein 4) (human, UniProt Q9NR61 27-524).
T11 construct: Bought recombinant protein (R&D Systems Cat#1506-D4/CF); also called rHuman DLL4; Delta-like 4
Description: ELISA, DLL4 coated on plate, Fab in solution, absorbance at 450 nm.

In experiment [12] the target is T11, Recombinant Human DLL4 (delta-like …). Description: ECL (MSD) multispot binding assay, DLL4 immobilized, Fab in solution.
The target of experiment [13] is T12, rHuman P-Cadherin/Fc Chimera (human, UniProt P22223 108-654).
T12 construct: Bought from R&D Systems (Cat#861-PC)
The experiment in a line: ECL multispot (MSD) binding assay; antigen spotted on plate, Fab in solution.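 Note: purified Fab bound for 1 h at 20 °C, detected with a TAG-labelled antibody, electrochemiluminescence compared with each well's blank, signal-to-blank ratio of at least 4 scored as hit.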

The target in experiment [14] is T13, rHuman Notch-1/Fc Chimera (human, UniProt P46531 19-526).
T13 construct: Bought from R&D Systems (Cat#3647-TK)
The experiment is described as above.

In experiment [15] the target is rHuman IGF-1 sR (insulin-like growth factor-1 soluble receptor) (human, UniProt P08069 31-932). The description is as above.
The target of experiment [16] is T14, rHuman HGF R/c-MET/Fc Chimera (human, UniProt P08581 25-932).
T14 construct: also called HGF R/Fc
The description is as above.

A further experiment addresses rHuman EGF R/Fc Chimera (human, UniProt P00533 25-645). The description is as above.
The target in a further experiment is rHuman CD44/Fc Chimera (human, UniProt P16070 21-220). The description is as above.
Another experiment has as its target rHuman ErbB2/Fc Chimera (human, UniProt P04626 23-652). The description is as above.
For experiment [17], the target named is T15, rHuman Erythropoietin R/Fc Chimera (human, UniProt P19235 25-250).
T15 construct: also called EPO R; EPO R/Fc
T15 sequence (looked up): T6 sequence (looked up)
The experiment is described as above.

T14 sequence (P08581 25-932, change not shown): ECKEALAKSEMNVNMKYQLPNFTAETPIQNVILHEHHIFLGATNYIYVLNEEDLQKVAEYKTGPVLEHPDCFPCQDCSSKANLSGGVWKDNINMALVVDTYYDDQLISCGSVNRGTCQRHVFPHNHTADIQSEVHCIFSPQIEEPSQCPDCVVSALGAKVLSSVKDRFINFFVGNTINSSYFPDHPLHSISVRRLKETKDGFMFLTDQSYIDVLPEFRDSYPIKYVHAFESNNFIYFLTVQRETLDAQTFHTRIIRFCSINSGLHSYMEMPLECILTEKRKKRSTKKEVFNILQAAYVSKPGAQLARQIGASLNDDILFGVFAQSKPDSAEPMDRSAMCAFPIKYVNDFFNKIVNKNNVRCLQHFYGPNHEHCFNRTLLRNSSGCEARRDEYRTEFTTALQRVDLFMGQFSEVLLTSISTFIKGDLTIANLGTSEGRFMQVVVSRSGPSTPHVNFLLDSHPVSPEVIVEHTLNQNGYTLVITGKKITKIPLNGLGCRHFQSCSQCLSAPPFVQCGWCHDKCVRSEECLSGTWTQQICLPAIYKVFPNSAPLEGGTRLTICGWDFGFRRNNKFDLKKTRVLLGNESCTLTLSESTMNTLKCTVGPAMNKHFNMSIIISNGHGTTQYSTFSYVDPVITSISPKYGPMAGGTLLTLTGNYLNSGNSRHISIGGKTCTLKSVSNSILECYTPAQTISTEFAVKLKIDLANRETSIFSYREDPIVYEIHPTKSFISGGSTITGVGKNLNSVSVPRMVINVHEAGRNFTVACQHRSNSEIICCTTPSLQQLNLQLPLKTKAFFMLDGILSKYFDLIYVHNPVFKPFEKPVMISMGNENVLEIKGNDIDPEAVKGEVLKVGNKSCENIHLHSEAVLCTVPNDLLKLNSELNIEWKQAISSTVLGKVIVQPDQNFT
T8 sequence (P08581 25-932, change not shown): as above

B1: Fab VH5-51_IGHD5-18*01>3_IGHJ4*01 G100K/G104T G54A & V3-4_IGLJ1*01 (Fab, V domains shown)
VH: EVQLVQSGAEVKKPGESLKISCKGSGYSFTSYWIGWVRQMPGKGLEWMGIIYPADSDTRYSPSFQGQVTISADKSISTAYLQWSSLKASDTAMYYCARRKYSYTYDYFDYWGQGTLVTVSS
VL: QTVVTQEPSFSVSPGGTVTLTCGLSSGSVSTSYYPSWYQQTPGQAPRTLIYSTNTRSSGVPDRFSGSILGNKAALTITGAQADDESDYYCVLYMGSGISYVFGTGTKVTVL
notes: Tested as Fab; CH1 with His6/Flag tags (plasmid A) and lambda CL (plasmid E) come from the expression vectors
For the molecule B1, the “ECL Signal/Blank” value in experiment [1] was 4.1.

B2: Fab VH5-51_IGHD5-18*01>3_IGHJ4*01 G100K/G104T T58A & V3-4_IGLJ1*01 (Fab, V domains shown)
VH: B1 VH with A54G, T58A
VL: B1 VL
notes: as for B1
With B2, the “ECL Signal/Blank” value in [1] was determined as 102.

B3: Fab VH5-51_IGHD5-18*01>3_IGHJ4*01 G100K/G104T S56A & V3-4_IGLJ1*01 (Fab, V domains shown)
VH: B1 VH with A54G, S56A
VL: B1 VL
notes: as for B1
As to B3, in experiment [1], the “ECL Signal/Blank” value is 55.

B4: Fab VH1-46_IGHD6-6*01_IGHJ1*01 S102A/S103P/S104F/H111F S31A & L6_IGKJ1*01 (Fab, V domains shown)
VH: QVQLVQSGAEVKKPGASVKVSCKASGYTFTAYYMHWVRQAPGQGLEWMGIINPSGGSTSYAQKFQGRVTMTRDTSTSTVYMELSSLRSEDTAVYYCAREEYAPFSAEYFQFWGQGTLVTVSS
VL: not shown
notes: Tested as a Fab made in E. coli; The heavy chain vector (Plasmid A) adds CH1 with His6 and Flag tags; The light chain vector (Plasmid C) adds kappa CL; also called APFF S31A
Turning to B4, the ECL signal in [2] is 235; in experiment [3], 253; in experiment [4], 377; in [5], 176000; in experiment [6] it was 507; in experiment [7] it was 427. Besides, the ECL signal in [8] came out at 358; in [9], 268; in experiment [10], 262.

B5: Fab VH1-46_IGHD6-6*01_IGHJ1*01 S102A/S103P/S104F/H111F (H:APFF) & L6_IGKJ1*01 S76E (Fab, V domains shown)
VH: B4 VH with A31S
VL: EIVLTQSPATLSLSPGERATLSCRASQSVSSYLAWYQQKPGQAPRLLIYDASNRATGIPARFSGSGSGTDFTLTIESLEPEDFAVYYCQQRSNWPPWTFGQGTKVEIKR
notes: Tested as Fab expressed in E. coli; VH was cloned into Plasmid A (CH1 constant region, His6 and Flag tags) and the kappa VL into Plasmid C (kappa CL)
For B5, in experiment [11], the “ELISA (Signal-Noise)” value amounted to 0.36. The “ECL Signal/Noise” value in experiment [12] amounted to 218.

B6: Fab VH1-46_IGHD6-6*01_IGHJ1*01 S102A/S103P/S104F/H111F T30A & L6_IGKJ1*01 (Fab, V domains shown)
VH: B4 VH with T30A, A31S
VL: not shown
notes: Tested as a Fab made in E. coli; The heavy chain vector (Plasmid A) adds CH1 with His6 and Flag tags; The light chain vector (Plasmid C) adds kappa CL; also called APFF T30A
As to B6, the ECL signal in [2] was 396; in [3], 408; in experiment [4] it was 351; in [5], 178000; in [6] it was 479; in experiment [7], 368. In addition, the ECL signal worked out at 353 in [8], 343 in experiment [9] and 337 in experiment [10].

B7: Fab VH1-46_IGHD6-6*01_IGHJ1*01 S102A/S103P/S104F/H111F T28A & L6_IGKJ1*01 (Fab, V domains shown)
VH: B4 VH with T28A, A31S
VL: not shown
notes: Tested as a Fab made in E. coli; The heavy chain vector (Plasmid A) adds CH1 with His6 and Flag tags; The light chain vector (Plasmid C) adds kappa CL; also called APFF T28A
With B7, the ECL signal in experiment [2] was 497; in experiment [3], 316; in experiment [4] it was 329; in [5], 181000; in experiment [6], 477; in experiment [7], 478. Further, the ECL signal in experiment [8] came to 353; in [9], 377; in [10], 477.

B8: Fab VH1-46_IGHD6-6*01_IGHJ1*01 S102A/S103P/S104F/H111F (H:APFF) & L6_IGKJ1*01 S76N (Fab, V domains shown)
VH: B4 VH with A31S
VL: B5 VL with E76N
notes: as for B5
For B8, in experiment [11], the “ELISA (Signal-Noise)” value worked out at 0.28. Moreover, in experiment [12], the “ECL Signal/Noise” value came to 118.

B9: Fab VH1-46_IGHD6-6*01_IGHJ1*01 S102A/S103P/S104F/H111F (H:APFF) & L6_IGKJ1*01 S76Q (Fab, V domains shown)
VH: B4 VH with A31S
VL: B5 VL with E76Q
notes: as for B5
Consider B9, for which the “ELISA (Signal-Noise)” value in [11] worked out at 0.32. In addition, the “ECL Signal/Noise” value in experiment [12] was 187.

B10: Fab VH1-46_IGHD6-6*01_IGHJ1*01 S102A/S103P/S104F/H111F Y33A & L6_IGKJ1*01 (Fab, V domains shown)
VH: B4 VH with A31S, Y33A
VL: not shown
notes: Tested as a Fab made in E. coli; The heavy chain vector (Plasmid A) adds CH1 with His6 and Flag tags; The light chain vector (Plasmid C) adds kappa CL; also called APFF Y33A
B10: the ECL signal was determined as 290 in experiment [2]; 298 in experiment [3]; 281 in experiment [4]; 59500 in experiment [5]; 430 in experiment [6]; 334 in experiment [7]. In addition, the ECL signal in experiment [8] came to 248; in experiment [9], 227; in [10] it was 178.

B11: Fab VH1-46_IGHD6-6*01_IGHJ1*01 S102A/S103P/S104F/H111F (H:APFF) & L6_IGKJ1*01 S76P (Fab, V domains shown)
VH: B4 VH with A31S
VL: B5 VL with E76P
notes: as for B5
For the molecule B11, in experiment [11], the “ELISA (Signal-Noise)” value was found to be 0.29. Also, in [12], the “ECL Signal/Noise” value was determined as 100.

B12: Fab VH1-46_IGHD6-6*01_IGHJ1*01 S102A/S103P/S104F/H111F (APFF) & L6_IGKJ1*01 S92N (Fab, V domains shown)
VH: B4 VH with A31S
VL: B5 VL with E76S, S92N
notes: Tested as Fab (CH1 with His6/Flag tags from Plasmid A; kappa CL from Plasmid C); also called APFF / S92N
With B12, the ECL signal was 271 in [13]; 407 in [14]; 312 in [15]; 243 in [16]; 293 with rHuman EGF R/Fc Chimera; 336 with rHuman CD44/Fc Chimera. Also, the ECL signal with rHuman ErbB2/Fc Chimera is 242; in experiment [17], 314.

B13: Fab VH1-46_IGHD6-6*01_IGHJ1*01 S102A/S103P/S104F/H111F (APFF) & L6_IGKJ1*01 S92M (Fab, V domains shown)
VH: B4 VH with A31S
VL: B5 VL with E76S, S92M
notes: Tested as Fab (CH1 with His6/Flag tags from Plasmid A; kappa CL from Plasmid C); also called APFF / S92M
Consider B13, for which the ECL signal turned out to be 328 in [13]; 385 in [14]; 271 in experiment [15]; 346 in experiment [16]; 367 in the experiment with rHuman EGF R/Fc Chimera; 304 in the experiment with rHuman CD44/Fc Chimera. Also, the ECL signal in the experiment with rHuman ErbB2/Fc Chimera is 301; in experiment [17] it was 340.

B14: Fab VH1-46_IGHD6-6*01_IGHJ1*01 S102A/S103P/S104F/H111F (APFF) & L6_IGKJ1*01 S92V (Fab, V domains shown)
VH: B4 VH with A31S
VL: B5 VL with E76S, S92V
notes: Tested as Fab (CH1 with His6/Flag tags from Plasmid A; kappa CL from Plasmid C); also called APFF / S92V
As for B14, the ECL signal was 390 in experiment [13]; 347 in experiment [14]; 237 in experiment [15]; 288 in experiment [16]; 305 with rHuman EGF R/Fc Chimera; 331 with rHuman CD44/Fc Chimera. Moreover, the ECL signal turned out to be 246 with rHuman ErbB2/Fc Chimera and 368 in [17].
